Laboratory results: article PMC13419597, “An Acetylation-Primed SUMOylation Switch Controls RORβ Stability through a p300-SIRT1 Regulatory Axis” (Research Square, 2024)

Biological target: T1, His-HA-RORβ (isoform 1) (human, UniProt Q92753-1 1-459)
T1 construct: Retinoic acid receptor-related orphan receptor beta (RORβ), human, isoform 1 (RORβ1); the printed residue numbers (K11 to K459 at the C-terminus of the LBD) fit the 459-residue form; Same plasmid used in TC28a2 (RIME) and HEK293T (co-IP, IP-MS); also called HA-tagged RORβ; RORβ WT; source: TC28a2 or HEK293T, transiently transfected (pCMV6), in lysate
T1 sequence (looked up): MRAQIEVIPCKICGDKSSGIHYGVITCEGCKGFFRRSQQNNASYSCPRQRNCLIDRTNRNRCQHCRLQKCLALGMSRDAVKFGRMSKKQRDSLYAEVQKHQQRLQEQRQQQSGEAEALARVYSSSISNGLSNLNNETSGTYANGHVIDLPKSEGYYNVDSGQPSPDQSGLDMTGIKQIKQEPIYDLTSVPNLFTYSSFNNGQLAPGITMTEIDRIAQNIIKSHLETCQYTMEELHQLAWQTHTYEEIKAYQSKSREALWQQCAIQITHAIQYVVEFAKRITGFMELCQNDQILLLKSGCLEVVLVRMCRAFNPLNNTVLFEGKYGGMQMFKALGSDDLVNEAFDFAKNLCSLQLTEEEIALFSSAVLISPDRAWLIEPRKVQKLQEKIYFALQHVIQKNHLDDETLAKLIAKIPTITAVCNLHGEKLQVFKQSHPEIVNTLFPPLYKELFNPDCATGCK
Experiment: affinity purification with mass spectrometry; RIME: HA-RORβ transfected in TC28a2 chondrocytes, 1% formaldehyde crosslinking in cells, nuclear lysate, anti-HA magnetic beads, HA-peptide-blocked control; also with SIRT1 activator SRT2104 against DMSO
Settings: partners not purified

B1: PIAS1, endogenous in TC28a2 (enzyme, human (endogenous in TC28a2), UniProt O75925 1-651, looked up)
chain: MADSAELKQMVMSLRVSELQVLLGYAGRNKHGRKHELLTKALHLLKAGCSPAVQMKIKELYRRRFPQKIMTPADLSIPNVHSSPMPATLSPSTIPQLTYDGHPASSPLLPVSLLGPKHELELPHLTSALHPVHPDIKLQKLPFYDLLDELIKPTSLASDNSQRFRETCFAFALTPQQVQQISSSMDISGTKCDFTVQVQLRFCLSETSCPQEDHFPPNLCVKVNTKPCSLPGYLPPTKNGVEPKRPSRPINITSLVRLSTTVPNTIVVSWTAEIGRNYSMAVYLVKQLSSTVLLQRLRAKGIRNPDHSRALIKEKLTADPDSEIATTSLRVSLLCPLGKMRLTIPCRALTCSHLQCFDATLYIQMNEKKPTWVCPVCDKKAPYEHLIIDGLFMEILKYCTDCDEIQFKEDGTWAPMRSKKEVQEVSASYNGVDGCLSSTLEHQVASHHQSSNKNKKVEVIDLTIDSSSDEEEEEPSAKRTCPSLSPTSPLNNKGILSLPHQASPVSRTPSLPAVDTSYINTSLIQDYRHPFHMTPMPYDLQGLDFFPFLSGDNQHYNTSLLAAAAAAVSDDQDLLHSSRFFPYTSSQMFLDQLSAGGSTSLPTTNGSSSGSNSSLVSSNSLRESHSHTVTNRSSTDTASIFGIIPDIISLD
notes: E3 SUMO-protein ligase PIAS1, endogenous in TC28a2 human chondrocytes; source: endogenous, TC28a2 nuclear lysate
log2 fold change of PIAS1 in RORβ immunoprecipitates, SRT2104 against DMSO: ~-0.4 log2 fold change (SRT2104/DMSO)
